{
  "source": "paper PMC8660260",
  "about": "(2021)",
  "key": {"[1]": {"biological_target": "T1, NSP12 peptide on HLA-A*02:01 (human)", "T1 peptide": "FVDGVPFVV", "assay": "activation reporter or marker"}, "[2]": {"biological_target": "T2, NSP12 peptide on HLA-A*02:01 (human)", "T2 peptide": "TMADLVYAL", "assay": "activation reporter or marker"}},
  "data": [
    {"binder": "CoVTCR 18 (TCR) alpha TRAV12-1 TRAJ45 CDR3: CVLPSGGGADGLTF beta TRBV5-1 TRBJ2-1 CDR3: CASTGLAGGPYNEQFF", "values": [
      {"measurement": "binding result", "setting": "[1]", "result": "recognises"}
    ]},
    {"binder": "CoVTCR 19 (TCR) alpha TRAV35 TRAJ43 CDR3: CAGQLARDMRF beta TRBV13 TRBJ2-7 CDR3: CASRWAGGTAYEQYF", "values": [
      {"measurement": "binding result", "setting": "[1]", "result": "recognises"}
    ]},
    {"binder": "CoVTCR 12 (TCR) alpha TRAV17 TRAJ57 CDR3: CATVLPTQGGSEKLVF beta TRBV18 TRBJ1-1 CDR3: CASSLTVNMNTEAFF", "values": [
      {"measurement": "binding result", "setting": "[2]", "result": "recognises"}
    ]}
  ]
}
